This note sets out measurements from patent publication US20260167721A1 (ABLEXIS, published 2026).

Experiment [1] has as its target T1, CD3 on human donor PBMC / Pan T effector cells (human, UniProt P07766 23-207; P09693 23-182; P04234 22-171; P20963 22-164). Nature of the experiment: cell-based or functional assay.
The target of experiment [2] is T1, CD3 on human donor PBMC / Pan T …. Nature of the experiment: cell-based or functional assay. This is another data set of the same source.

T1 sequence (P07766 23-207, chain 1 of 4): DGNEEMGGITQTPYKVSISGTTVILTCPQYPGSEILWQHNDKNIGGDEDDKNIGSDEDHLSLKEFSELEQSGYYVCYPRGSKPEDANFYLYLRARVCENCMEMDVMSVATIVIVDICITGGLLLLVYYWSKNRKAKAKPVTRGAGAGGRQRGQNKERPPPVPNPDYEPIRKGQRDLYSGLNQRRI
T1 sequence (P09693 23-182, chain 2 of 4): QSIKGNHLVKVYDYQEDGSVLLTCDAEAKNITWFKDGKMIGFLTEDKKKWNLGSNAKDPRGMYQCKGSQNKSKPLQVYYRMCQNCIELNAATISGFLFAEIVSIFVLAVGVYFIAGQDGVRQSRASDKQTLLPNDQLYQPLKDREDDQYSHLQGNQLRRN
T1 sequence (P04234 22-171, chain 3 of 4): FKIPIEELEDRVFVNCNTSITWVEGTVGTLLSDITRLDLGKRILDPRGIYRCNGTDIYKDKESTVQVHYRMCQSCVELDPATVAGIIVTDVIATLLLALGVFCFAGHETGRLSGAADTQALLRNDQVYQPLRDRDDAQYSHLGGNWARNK
T1 sequence (P20963 22-164, chain 4 of 4): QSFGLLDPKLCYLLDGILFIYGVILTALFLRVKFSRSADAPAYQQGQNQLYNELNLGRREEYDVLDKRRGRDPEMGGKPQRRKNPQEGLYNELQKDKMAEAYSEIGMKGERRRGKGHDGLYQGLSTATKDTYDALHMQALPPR

B1: CD3 × CD33-BspAb73 (bispecific antibody)
chain 1: EVQLVESGGGLVKPGGSLRLSCAASGFTFSSYSMNWVRQAPGKCLEWVSSVNSRGSYIYYADSVKGRFTISRDNAKDSLYLQMNSLRADDTAVYYCARDRRELLLDYWGQGTLVTVSSGGGGSGGGGSGGGGSGGGGSSYELTQPPSVSVSPGQTARITCSGDALPKKYAYWYQQKSGQAPVLVIYEDSKRPSGIPERFSGSSSGTMATLTISGAQVEDEADYYCYSTDSSGNHSWVFGCGTKLTVLDKTHTCPPCPAPEFEGGPSVFLFPPKPKDTLMISRTPEVTCVVVDVSHEDPEVKFNWYVDGVEVHNAKTKPREEQYNSTYRVVSVLTVLHQDWLNGKEYKCKVSNKALPASIEKTISKAKGQPREPQVYTLPPCREEMTKNQVSLWCLVKGFYPSDIAVEWESNGQPENNYKTTPPVLDSDGSFFLYSKLTVDKSRWQQGNVFSCSVMHEALHNHYTQKSLSLSPGK
chain 2: EVQLVQSGAEVKKPGSSVKVSCKASGYTITDSNIHWVRQAPGQSLEWIGYIYPYNGGTDYNQKFKNRATLTVDNPTNTAYMELSSLRSEDTAFYYCVNGNPWLAYWGQGTLVTVSSASTKGPSVFPLAPSSKSTSGGTAALGCLVKDYFPEPVTVSWNSGALTSGVHTFPAVLQSSGLYSLSSVVTVPSSSLGTQTYICNVNHKPSNTKVDKRVEPKSCDKTHTCPPCPAPEFEGGPSVFLFPPKPKDTLMISRTPEVTCVVVDVSHEDPEVKFNWYVDGVEVHNAKTKPREEQYNSTYRVVSVLTVLHQDWLNGKEYKCKVSNKALPASIEKTISKAKGQPREPQVCTLPPSREEMTKNQVSLSCAVKGFYPSDIAVEWESNGQPENNYKTTPPVLDSDGSFFLVSKLTVDKSRWQQGNVFSCSVMHEALHNRFTQKSLSLSPGK
chain 3: DIQLTQSPSTLSASVGDRVTITCRASESLDNYGIRFLTWFQQKPGKAPKLLMYAASNQGSGVPSRFSGSGSGTEFTLTISSLQPDDFATYYCQQTKEVPWSFGQGTKVEVKRTVAAPSVFIFPPSDEQLKSGTASVVCLLNNFYPREAKVQWKVDNALQSGNSQESVTEQDSKDSTYSLSSTLTLSKADYEKHKVYACEVTHQGLSSPVTKSFNRGEC
As for B1, in experiment [1], the “Cytokine Release Assay (TNFα) Donor 0 EC50” value was 759 pM, the “Cytokine Release Assay (TNFα) Donor 0 gMFI max” value came to 28000 gMFI, the “Cytokine Release Assay (TNFα) Donor 1 gMFI max” value amounted to 4400 gMFI and the “Cytokine Release Assay (TNFα) Donor 2 EC50” value was determined as 1010 pM. Besides, in experiment [1], the “Cytokine Release Assay (TNFα) Donor 2 gMFI max” value is 14300 gMFI, the “Cytokine Release Assay (TNFα) Donor 3 EC50” value came to 653 pM and the “Cytokine Release Assay (TNFα) Donor 3 gMFI max” value is 24200 gMFI. Further, in experiment [2], the “Cytokine Release Assay (IL2) Donor 0 EC50” value was 104 pM, the “Cytokine Release Assay (IL2) Donor 0 gMFI max” value turned out to be 29000 gMFI, the “Cytokine Release Assay (IL2) Donor 1 EC50” value came to 373 pM and the “Cytokine Release Assay (IL2) Donor 1 gMFI max” value came out at 15900 gMFI. In addition, in experiment [2], the “Cytokine Release Assay (IL2) Donor 2 EC50” value stood at 26500 pM, the “Cytokine Release Assay (IL2) Donor 2 gMFI max” value was determined as 32500 gMFI, the “Cytokine Release Assay (IL2) Donor 3 EC50” value amounted to 240 pM and the “Cytokine Release Assay (IL2) Donor 3 gMFI max” value is 42900 gMFI.

B2: CD3 × CD33-BspAb85 (bispecific antibody)
chain 1: EVQLVESGGGLVKPGGSLRLSCAASGFTFSSYSMNWVRQAPGKCLEWVSSISRSSGYIFYADSVKGRFTISRDNAKNSLYLQMNSLRAEDTAVYYCVRERVGAGFDYWGQGTLVTVSSGGGGSGGGGSGGGGSGGGGSNFMLTQPHSVSESPGKTVAISCTRSSGSIASNYVQWYQQRPGSSPTAVIYEDNQRPSGVPDRFSGSIDSSSNSAFLTISGLKTEDEADYYCQSYDSSNRVFGCGTKLTVLDKTHTCPPCPAPEFEGGPSVFLFPPKPKDTLMISRTPEVTCVVVDVSHEDPEVKFNWYVDGVEVHNAKTKPREEQYNSTYRVVSVLTVLHQDWLNGKEYKCKVSNKALPASIEKTISKAKGQPREPQVYTLPPCREEMTKNQVSLWCLVKGFYPSDIAVEWESNGQPENNYKTTPPVLDSDGSFFLYSKLTVDKSRWQQGNVFSCSVMHEALHNHYTQKSLSLSPGK
chain 2: EVQLVQSGAEVKKPGSSVKVSCKASGYTITDSNIHWVRQAPGQSLEWIGYIYPYNGGTDYNQKFKNRATLTVDNPTNTAYMELSSLRSEDTAFYYCVNGNPWLAYWGQGTLVTVSSASTKGPSVFPLAPSSKSTSGGTAALGCLVKDYFPEPVTVSWNSGALTSGVHTFPAVLQSSGLYSLSSVVTVPSSSLGTQTYICNVNHKPSNTKVDKRVEPKSCDKTHTCPPCPAPEFEGGPSVFLFPPKPKDTLMISRTPEVTCVVVDVSHEDPEVKFNWYVDGVEVHNAKTKPREEQYNSTYRVVSVLTVLHQDWLNGKEYKCKVSNKALPASIEKTISKAKGQPREPQVCTLPPSREEMTKNQVSLSCAVKGFYPSDIAVEWESNGQPENNYKTTPPVLDSDGSFFLVSKLTVDKSRWQQGNVFSCSVMHEALHNRFTQKSLSLSPGK
chain 3: DIQLTQSPSTLSASVGDRVTITCRASESLDNYGIRFLTWFQQKPGKAPKLLMYAASNQGSGVPSRFSGSGSGTEFTLTISSLQPDDFATYYCQQTKEVPWSFGQGTKVEVKRTVAAPSVFIFPPSDEQLKSGTASVVCLLNNFYPREAKVQWKVDNALQSGNSQESVTEQDSKDSTYSLSSTLTLSKADYEKHKVYACEVTHQGLSSPVTKSFNRGEC
Consider B2, for which, in experiment [1], the “Cytokine Release Assay (TNFα) Donor 0 EC50” value is 114 pM, the “Cytokine Release Assay (TNFα) Donor 0 gMFI max” value stood at 44800 gMFI, the “Cytokine Release Assay (TNFα) Donor 1 EC50” value is 647 pM and the “Cytokine Release Assay (TNFα) Donor 1 gMFI max” value came out at 5490 gMFI. Also, in experiment [1], the “Cytokine Release Assay (TNFα) Donor 2 EC50” value was 49.7 pM, the “Cytokine Release Assay (TNFα) Donor 2 gMFI max” value was 18400 gMFI, the “Cytokine Release Assay (TNFα) Donor 3 EC50” value turned out to be 63.5 pM and the “Cytokine Release Assay (TNFα) Donor 3 gMFI max” value was found to be 26600 gMFI. Besides, in experiment [2], the “Cytokine Release Assay (IL2) Donor 0 EC50” value worked out at 121 pM, the “Cytokine Release Assay (IL2) Donor 0 gMFI max” value was determined as 33000 gMFI, the “Cytokine Release Assay (IL2) Donor 1 EC50” value came out at 442 pM and the “Cytokine Release Assay (IL2) Donor 1 gMFI max” value stood at 23100 gMFI. Further, in experiment [2], the “Cytokine Release Assay (IL2) Donor 2 EC50” value worked out at 222 pM, the “Cytokine Release Assay (IL2) Donor 2 gMFI max” value came out at 32600 gMFI, the “Cytokine Release Assay (IL2) Donor 3 EC50” value came out at 92.6 pM and the “Cytokine Release Assay (IL2) Donor 3 gMFI max” value is 49700 gMFI.

B3: CD3 × CD33-BspAb72 (bispecific antibody)
chain 1: EVQLVESGGGLVQPGGSLRLSCAASGFTFSSYSMNWVRQAPGKCLEWVSYISSSSSTIYYADSVKGRFTISRDNAKNSLYLQMNSLRDEDTAVYYCARDGPVDYGMDVWGQGTTVTVSSGGGGSGGGGSGGGGSGGGGSSYELTQPPSVSVSPGQTARITCSGDALPKQYTYWYQQKPGQAPVLVIYKDSERPSGIPERFSGSSSGTTVTLTISGVQAEDEADYYCQSADSSGTYRVFGCGTKLTVLDKTHTCPPCPAPEFEGGPSVFLFPPKPKDTLMISRTPEVTCVVVDVSHEDPEVKFNWYVDGVEVHNAKTKPREEQYNSTYRVVSVLTVLHQDWLNGKEYKCKVSNKALPASIEKTISKAKGQPREPQVYTLPPCREEMTKNQVSLWCLVKGFYPSDIAVEWESNGQPENNYKTTPPVLDSDGSFFLYSKLTVDKSRWQQGNVFSCSVMHEALHNHYTQKSLSLSPGK
chain 2: EVQLVQSGAEVKKPGSSVKVSCKASGYTITDSNIHWVRQAPGQSLEWIGYIYPYNGGTDYNQKFKNRATLTVDNPTNTAYMELSSLRSEDTAFYYCVNGNPWLAYWGQGTLVTVSSASTKGPSVFPLAPSSKSTSGGTAALGCLVKDYFPEPVTVSWNSGALTSGVHTFPAVLQSSGLYSLSSVVTVPSSSLGTQTYICNVNHKPSNTKVDKRVEPKSCDKTHTCPPCPAPEFEGGPSVFLFPPKPKDTLMISRTPEVTCVVVDVSHEDPEVKFNWYVDGVEVHNAKTKPREEQYNSTYRVVSVLTVLHQDWLNGKEYKCKVSNKALPASIEKTISKAKGQPREPQVCTLPPSREEMTKNQVSLSCAVKGFYPSDIAVEWESNGQPENNYKTTPPVLDSDGSFFLVSKLTVDKSRWQQGNVFSCSVMHEALHNRFTQKSLSLSPGK
chain 3: DIQLTQSPSTLSASVGDRVTITCRASESLDNYGIRFLTWFQQKPGKAPKLLMYAASNQGSGVPSRFSGSGSGTEFTLTISSLQPDDFATYYCQQTKEVPWSFGQGTKVEVKRTVAAPSVFIFPPSDEQLKSGTASVVCLLNNFYPREAKVQWKVDNALQSGNSQESVTEQDSKDSTYSLSSTLTLSKADYEKHKVYACEVTHQGLSSPVTKSFNRGEC
Consider B3, for which, in experiment [1], the “Cytokine Release Assay (TNFα) Donor 0 gMFI max” value was determined as 23400 gMFI, the “Cytokine Release Assay (TNFα) Donor 1 gMFI max” value was 4410 gMFI, the “Cytokine Release Assay (TNFα) Donor 2 EC50” value turned out to be 16900 pM and the “Cytokine Release Assay (TNFα) Donor 2 gMFI max” value was 8010 gMFI. In experiment [1], the “Cytokine Release Assay (TNFα) Donor 3 EC50” value was 42600 pM and the “Cytokine Release Assay (TNFα) Donor 3 gMFI max” value worked out at 11200 gMFI. Moreover, in experiment [2], the “Cytokine Release Assay (IL2) Donor 0 EC50” value is 8210 pM, the “Cytokine Release Assay (IL2) Donor 0 gMFI max” value worked out at 23000 gMFI, the “Cytokine Release Assay (IL2) Donor 1 EC50” value turned out to be 4280 pM and the “Cytokine Release Assay (IL2) Donor 1 gMFI max” value came to 17300 gMFI. In experiment [2], the “Cytokine Release Assay (IL2) Donor 2 EC50” value turned out to be 2160 pM, the “Cytokine Release Assay (IL2) Donor 2 gMFI max” value turned out to be 16400 gMFI, the “Cytokine Release Assay (IL2) Donor 3 EC50” value was found to be 8360 pM and the “Cytokine Release Assay (IL2) Donor 3 gMFI max” value came to 26300 gMFI.
